Results as given in the nanobody polyreactivity screen of Harvey et al. (2022).

Assay: yeast display, Sf9 membrane polyspecificity reagent, FACS + sequencing; frameworks hold sequencing errors
Procedure, shortened: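 A nanobody's polyreactivity label depends on the gate it was sorted from. Yeast display cells were stained with 10% biotinylated, detergent-solubilized Sf9 membrane reagent for 1 hour at 4 °C, enriched on streptavidin microbeads and sorted by FACS. The low and high (top ~1%) gates were set on anti-HA fluorescence for expression and streptavidin fluorescence for reagent binding.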

Sequence	polyreactivity (PSR sort gate)
QVQLVESGGGLVQAGGSLRLSCAASGRIFVLYTMGWYRQAPGKERELVAAISRRGGNTNYADSVKGRFTISRDNAKNTVYLQMNSLKPEDTAVYFCNARWTGARYYYYPMDYWGQGTQVTVSS	high polyreactivity
QVQLVESGGGLVQAGGSLRLSCAASGRIFVPNAMGWYRQAPGKERELVARISRSDGSTYYADSVKGRFTISRDNAKNTVYFPMNSLKPEDTAVYYCAASTTPRWWSFKYYYWGQGTQVTVSS	high polyreactivity
QVQLVESGGGLVQAGGSLRLSCAASGRIFVPYAMGWYRQAPGKERELVAGISWSGGSTYYADSVKGRFTISRDNAKNTVYLQMNNLKPEDTPVYYCAAAKRRRPFDYWGQGTQVTVSS	high polyreactivity
QVQLVESGGGLVQAGGSLRLSCAASGRIFVPYAMGWYRQAPGKVREFVAAISYRGGSTYYADSVKGRFTISRDNAKNTVYLQMNSLKPEDTAVYYCAKVIPYRGKVTLDYWGQGTQVTVSS	low polyreactivity
QVQLVESGGGLVQAGGSLRLSCAASGRIFVQYDMGWYRQAPGKERELVAAINDSGDITYYADSVKGRFTISRDNAKNTVYLQMNSLRPEDTAVYYCAASAAYYGFYKSVTYDYWGQGTQVTVSS	low polyreactivity
QVQLVESGGGLVQAGGSLRLSCAASGRIFVRNAMGWYRPAPGKERELVAGITRGGGTNFADSVKGSFTISRDNAKNTVYLQMNSLKPEVTAVYDCNALHRARLFGHYPYESWGHGTQVTVSS	high polyreactivity
QVQLVESGGGLVQAGGSLRLSCAASGRIFVRNAMGWYRQAPGKERELVAAISWSSGGPYYADSVKGRFTISRDNAKNTVYLQMNSLKPDDTAVYYCNADPSRAGDYWGQGTQVTVSS	low polyreactivity
QVQLVESGGGLVQAGGSLRLSCAASGRIFVRNAMGWYRQAPGKERELVADITNGGSTNYADSVKGRFTISRDNAKNTVYLQMNSLKPEDTAVYYCAADTLGVYDGDYWGQGTQVTVSS	low polyreactivity
QVQLVESGGGLVQAGGSLRLSCAASGRIFVRYAKGWYRQAPGKERELVAAISRSGGSTYYADSVKGRFTISRDNAKNTVYLQMNSLKPEDTAVYYCNAAYWRRYYQLEDYWGQGTQVTVSS	high polyreactivity
QVQLVESGGGLVQAGGSLRLSCAASGRIFVRYAMGWSRQAPGKEREMVAAISSSGGRTYYADSVKGRFTISRDNAKNTVYLQMNSLNAEDTAVYYCAARWVQYGVRYDYWGQGTQVTVSS	high polyreactivity
QVQLVESGGGLVQAGGSLRLSCAASGRIFVRYAMGWYRQAPGKERELVAAISKGGSSTYYADSVKGRFTISRDNAKNTVYLQMNSLKPEDTAVYYCAARVHGTGTLKYPNYYWGQGTQVTVSS	high polyreactivity
QVQLVESGGGLVQAGGSLRLSCAASGRIFVRYAMGWYRQAPGKERELVAAISYRGGSTYYADSVKGRFTISRDNAKNTVYLLMNSLKPEDTAVYYCAARNSYGNWSYYYWGQGTQVTLSS	high polyreactivity
QVQLVESGGGLVQAGGSLRLSCAASGRIFVRYAMGWYRQAPGKERELVATITKNGGRTYYADSVKGRFTISRDNAKNTVYLQMNSLKPEDTAVYYCAARPTYVADHLRYGYWGQGTQVTVSS	high polyreactivity
QVQLVESGGGLVQAGGSLRLSCAASGRIFVRYAMGWYRQAPGKESEFVADIDGGGGRTYADSVKGRFTISRDNAKNTVYLLMNSLKPEDTAVYYCNAYVYSIHWCDLYWSEYDYWGQGTQVTVSS	high polyreactivity
QVQLVESGGGLVQAGGSLRLSCAASGRIFVRYVMGWYRQAPGKERELVAAITKSGASTYYADSVKGRFTISRDNAKNTVYLQMNSLKPEDTAVYYCNRDLVDSYGYWGQGTQVTVSS	high polyreactivity
QVQLVESGGGLVQAGGSLRLSCAASGRIFVSNAMGWYRQAPGKERELVAAISKSGGRTYYADSVKGRFTISRVNAKNTVYLQMNSLKPEDTAVYYCAARSRVSPRYDYWGQGTQVTVSS	high polyreactivity
QVQLVESGGGLVQAGGSLRLSCAASGRIFVSNARGWYRQSPGKECELVAAISKSAARTAYADSVKGRFTISRDTAKNTVYLQMNSLKPEDTAVYYCNADRYRLYGESKGEGNYWGQGTQVTVSS	high polyreactivity
QVQLVESGGGLVQAGGSLRLSCAASGRIFVSNGMGWYRQAPGKESELVAVIRSSTGSTYYADSVKGRFTISRDNAKNTVYLQMNSLKPEDTAVYYCAAPNPFFEPSEYDYWAQGTQVTVSS	low polyreactivity
QVQLVESGGGLVQAGGSLRLSCAASGRIFVSYAMGWYRQAPGKERELVAAINWNGDRTYYADSVKGRFTISRDNAKNTVYLQMNSLKPEDSAVYYCNTDSILLPYDYWGQGTQVTVSS	low polyreactivity
QVQLVESGGGLVQAGGSLRLSCAASGRIFVSYAMGWYRQAPGKERELVAAINWNGDRTYYADSVKGRFTISRDNATNTVYLQMNSLKPEDTAVYYCNTDSILLPYDYWGQGTQVTVSS	low polyreactivity
QVQLVESGGGLVQAGGSLRLSCAASGRIFVSYAMGWYRQAPGKERELVAGISSSGGSTYYADSVKGRFTISRDNAKNTVYLQMNSLKPEDTAVYYCNTDQRSRMDYWGQGTQVTVSS	low polyreactivity
QVQLVESGGGLVQAGGSLRLSCAASGRIFVTNAMGWYRQAPGKERELVASISSGGRTHYADSVKGRFTISRDNAKNTVYLQMNSLKPEDTAVYYCAKPPLYYYPALRGEEFYYWGQGTQVTVSS	low polyreactivity

Sequence	polyreactivity (PSR sort gate)
QVQLVESGGGLVQAGGSLRLSCAASGRIFVTNDMGWYRQAPGKETELVAAINWNGDSTNYADSVKGRFTISRDNAKNTVYLQLNSLKPEDTAVYYCAAGWFTRDTLAGYDYWGKGTQVTVSS	low polyreactivity
QVQLVESGGGLVQAGGSLRLSCAASGRIFVVNAMGWYRQAPGNERELVAAISSSSDSTYYADSVKGRCTISRDNAKNTVYLQMNSLKPEDTAVYYCAADYHYDGYWIYDYWGQGTQVTVSS	high polyreactivity
QVQLVESGGGLVQAGGSLRLSCAASGRIFVVNTMGWYRQAPGKERELVAAISFSGVSTYYADSVKGRFTISRDNAKNTVYLQMISLKPEDTAVYYCAAVPYRQYPGGGYWGQGTQVTVSS	low polyreactivity
QVQLVESGGGLVQAGGSLRLSCAASGRIFVVYAMGWYRQEPGKERELVAAITGGGRTNYADSVKGRFTISRDNAKNTVYLHMNSLKPEATAVYYCAAGTRSDARRYYYWGQGTQVTVSS	low polyreactivity
QVQLVESGGGLVQAGGSLRLSCAASGRIFVWNAMGWYRQAPGKERELVAAITSSGGNTYYADSVKGRFTISRDNAKNNVYLQMNSLKQEDTAVYYCAAAGGAWARYRFNYWGQGTQVTVSS	high polyreactivity
QVQLVESGGGLVQAGGSLRLSCAASGRIFVWYDMGWYRQAPGKERELVAAISWGGGTNYADSVKGRFTISRDNAKNTVYLQMNSLKPEDTAVYYCAAAPSYYYFVRYVPSDIEGYWGQGTQVTVSS	low polyreactivity
QVQLVESGGGLVQAGGSLRLSCAASGRIFVYNAMGWYRQAPGKERELVAAITRGGSTYYADSVKGRFTISRDNAKNTVYLQMNSLNPEDTAVYYCASDYQRNDFRWYDYWGQGTQVTVSS	low polyreactivity
QVQLVESGGGLVQAGGSLRLSCAASGRIFVYNAMGWYRQAPGKERELVASITSSGGSTYYADSVKGRFTISRDNAKNTVYLQMNSLKPEDTAVYYCAADVQPDTRSTPEMDYWGQGTQVTVSS	low polyreactivity
QVQLVESGGGLVQAGGSLRLSCAASGRIFVYYAMGGYRQAPGKERELVATISTGGSTYYADSVKGRFTISRDNAKNTVYLQMNSLKPEDTAVYYCASDNVNLYLAYYYKGDYWGQGTQVTVSS	low polyreactivity
QVQLVESGGGLVQAGGSLRLSCAASGRIFVYYAMGWYRQAPGKERELVAAITYSVDSTYYADSVKGRFTISRDNAKNTVYLQKNSLKPEDTAVYYCATDVDWAYGYQYEDWGQGTQVPVSS	low polyreactivity
QVQLVESGGGLVQAGGSLRLSCAASGRIFVYYAMGWYRQAPGKERELVASISYSGASTYYADSVKGRFTISRDNAKNTVYLQMNSLKPEDTAVYYCNTDGDDFFHVIYDYWGQGTQVTVSS	low polyreactivity
QVQLVESGGGLVQAGGSLRLSCAASGRIFVYYTMGWYRQAPGKERELVAAISTGGRTHYADSVKGRFTISRDNAKNTVYLQMNSLKPEDTAVYYCNAASWNGGLFQTKYGYWGQGTQVTVSS	high polyreactivity
QVQLVESGGGLVQAGGSLRLSCAASGRIFWDNALGWYRKAPGTERELVAAISDSVVITYYADSVKGRFTISRDNAKNTVYLQMNSLKPEDSAVYYCAAGGWPYSGGWFFQPNYDYWGQGTQVTVSS	low polyreactivity
QVQLVESGGGLVQAGGSLRLSCAASGRIFWDNAMGWYRQAPVKERELVAAISGGASTYADSVKGRFTISRDNAKNTVYLQMNSLKAEDTSVYYCYAFQSPVEEEYYWGQGTQVTVSS	low polyreactivity
QVQLVESGGGLVQAGGSLRLSCAASGRIFWGNAMGWYRQAPGKERELVAAINWSGGSTYYADSVKGRFTISRDNAKNTVYLQMNTLKPEDTAVYYCAADANGIVRYYYWGQGTQVTVSS	low polyreactivity
QVQLVESGGGLVQAGGSLRLSCAASGRIFWGNAMGWYRQAPGKERELVAAITRRGGTTFYADSVKGRFTISRDNAKNTVYLQMNSLKPEDTAVYYCAARRYGQYDGYDSWGQGTQVTVSS	high polyreactivity
QVQLVESGGGLVQAGGSLRLSCAASGRIFWGSTMVWYRQAPGKEMELVAAITYRGATTYYADSVKGRFTISRDNAKNTVYLQMNSLKPEDTAVYYCAAEYYYTYGYWGQGTQVTVSS	high polyreactivity
QVQLVESGGGLVQAGGSLRLSCAASGRIFWHNAMGWYRQAPGKERELVAAISSRGGSTSYADSVKGRFTISRDNAKNTVYLQMNSLKPEDTAVYYCNARNQGYYRVWGYRGDYWGQGTQVTVSS	low polyreactivity
QVQLVESGGGLVQAGGSLRLSCAASGRIFWINAMGWYRQAPGKERELVAAITTDGGTTYYADSVKGRFTISRDNAKNTVYLQMNSLKPEDTAVYYCAADAAGQYWWQTYDYWGQGTQVTVSS	high polyreactivity
QVQLVESGGGLVQAGGSLRLSCAASGRIFWINAMGWYRQATGKERELVATISSGSTSYADSVKGRFTISRDNAKNTVYLQMNSLKPEDTAVYYCAVTLRYTRSGAYDYWGQGTQVTVSS	low polyreactivity
QVQLVESGGGLVQAGGSLRLSCAASGRIFWPNAMGWYLQAPGKESEFVAAIRWSSDRTYYADSVKGRFTISRDNAKNTVYLQMNSLKPEYTAVYYCNAVRYVISKYDYWGHGTQVTVSS	high polyreactivity
